Experimental data published in patent US20230236188A1.

Target: CD40 on human B cells (human) (UniProt P25942)
Assay: cell-based or functional assay

UniProt P25942, sequence (P25942 21-277): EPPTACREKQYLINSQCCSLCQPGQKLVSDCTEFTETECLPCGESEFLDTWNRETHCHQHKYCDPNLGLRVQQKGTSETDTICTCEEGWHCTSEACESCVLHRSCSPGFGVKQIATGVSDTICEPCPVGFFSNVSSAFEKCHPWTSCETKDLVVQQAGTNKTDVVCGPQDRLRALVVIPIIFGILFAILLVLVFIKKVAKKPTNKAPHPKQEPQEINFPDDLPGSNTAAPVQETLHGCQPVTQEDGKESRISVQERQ

| average CD40 internalization score after co-culture with 10% hCD40L-CHO cells | average CD40 internalization score on fresh B cells co-cultured 1 h with autologous CD40L-IZ-stimulated B cells that had upregulated CD40L | percent of B cells with CD40 downregulation after 1 h co-incubation with 1% hCD40L-CHO cells | percent of B cells with CD40 internalization after co-culture with 10% hCD40L-CHO cells | percent of B cells with NF-kB p50 nuclear translocation after hCD40L-CHO cells (unstimulated: 29%) | percent of fresh B cells with internalized CD40 after co-culture with autologous CD40L-IZ-stimulated B cells that had upregulated CD40L | percent of fresh B cells with p50 nuclear translocation after co-culture with CD40L-IZ-stimulated B cells | percent of total CD40lo/- B cells after 1 h co-incubation with 10% hCD40L-CHO cells | average CD40 internalization score after 1 h stimulation (unstimulated: 0.41) | percent of B cells with NF-kB p50 nuclear translocation (unstimulated: 29%) | percent of B cells with internalized CD40 (internalization score >2.5; unstimulated: 2.1%) | Substance |
| --- | --- | --- | --- | --- | --- | --- | --- | --- | --- | --- | --- |
| 1.69 | 1.26 | 5% | 33% | 54% | 19.5% | 41% | 37% | – | – | – | human CD40 ligand (CD40L), membrane form on cells (from UniProt P29965 1-261) |
| – | – | – | – | – | – | – | – | 2.09 | 58% | 42% | human CD40L isoleucine zipper (CD40L-IZ) (from UniProt P29965 113-261) (ligand) |
